Measured values published in the nanobody polyreactivity screen of Harvey et al. (2022).

Assay: yeast display, Sf9 membrane polyspecificity reagent, FACS + sequencing; frameworks hold sequencing errors
How it was run: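 A synthetic nanobody library was expressed on Saccharomyces cerevisiae BJ5465 by galactose induction for 36–48 hours. The library was stained for 1 hour at 4 °C with 10% biotinylated, detergent-solubilized Sf9 membrane reagent and enriched with streptavidin microbeads before FACS. Low and high (top ~1%) gates were set on anti-HA fluorescence for expression and streptavidin fluorescence for reagent binding, and each polyreactivity label reflects the gate of origin.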

Sequence | polyreactivity (PSR sort gate)
HVQLQESGGGLVQAGGSLRLSCAASGSIYQATYMGWYRQAPGKEREFVASITYGSITNYADSVKGRFTIGRDNANDTLYLQMNSLKPEDTAVYYCSVDRHYYWGQGTQVTVST | low polyreactivity
QVQLVESGGGLVQAGGSLRLSCAASGFIFYGYTMGWYRQAPGKERELVAAITRGGSTYYADSVKGRFTISRDNAKNTVYLQMNSLKPEDTAVYYCAALTWDGMDYWGQGTQVTVSS | high polyreactivity
QVQLVESVGGLVQAGGSLRLSCAASGRTFLRYAMGWYRQAPGKERELVAAISWSGGRTYYADSVKGRFTISRDNAKNTVYLQMNSLKPEDTAVYYCNKVVLYGAHYYYWGQGTQVTVSS | high polyreactivity
QVQLVESGGGLVQAGGSLRLSCAASGSPFFRNAMGWYRPAPGTERELVADISASGGSTYYADSVKGRFTLSRDNAKNTVNLQMNSLKPEDTAVYSCNALYIYSYNYLTMDYWGQGTQVTVSS | low polyreactivity
QVQLVESGGGLVQAGGSLRLSCAASGSIFRLYAMGWYRQAPGKERELVATITSGGNTYADSVKGRFTISRDNAKNTVYLQMNSLKPEDTAVYYCATTVYAYSYGYEYWGQGTQVTVSS | high polyreactivity
QVQLVESGGGLVQAGGSLRLSCAASGSTFLYYAMGWYRQAPGKERELVATITDGGSTNYADSVKGRFTISRDNAKNTVYLQMNSLKPEDTAVYYCATDSYHYSYGYASLPEYDYWGQGTQVTVSS | low polyreactivity
QVQLVEPGGGLVQAGGSLRLSCAASGRIFRGYAMGWYRQAPGKVRELVAANSQSGSSTYYADSVKGRFTISRDNAKNTVYLKMNSLKPEDTAVYYCAVKYLKHFGYWGQGTQVTVSS | high polyreactivity
QVQLVESGGGLVQAGGSLRLSSAASGSIQFRNAMRWYRHAPGKERELVAAITVSGGSTYYADSVKGRFTISRDYAKNRVYLQMNSLKPEDNAVYLCAAVYLLRYSQFDYWGQGTQVTESS | low polyreactivity
QVQLVESGGGLVQAGGSLRLICAASGSTLNSYVMGWSRQAPGKERDMVATIRSGSSTNYADSVKGRFTISRDNAKNTVYFQMNSLIPEDTAVYSCAADAYSLCYDSWGQGTQVTVSS | low polyreactivity
QVQLVESGGGLVQAGGSLRLSCAASGFIFDYYTMGWYRQAPGKERELVASIRSSGSSTYYADSVKGRFTISRDNAKNTVYLQMNSLKPEDTAVYYCARRYVVNRDWGDDYWGQGTQVTVSS | high polyreactivity
QVQLLESGGGLVQAGGSLRLSCAASGRIFNPYAMGWFRQARGKERALVAASSSCGDRTFYADSVKGRFTISRDNAKNTVYLQMNSRKPEDTAVYFCNTVVYTRFRPWRYGYCGQGTQVTVSS | high polyreactivity
QVQLVESGGGLVQAGGSLRLSCAASGFTFPFYTMGWYRQAPGKERELVAAITFSGDSTYYADSVKGRFTISRDNAKNTVYLQMNSLKPEDTAVYYCAVASYWGPEYDYWGQGTQVTVSS | low polyreactivity
QVQLVESGGGLVQAGGSLRLSCAASGGIFDIYAMGWYRQAPGKERELVAAIRGSGGRTYYADSVKGRFTISRDNAKNTVYLQMNSLKPEDTAVYYCAARPSIVTGLRYGYWGQGTQVTVSS | high polyreactivity
QVQLVESGGGLVQAGGSLRLSCAASGLTFDYYAMGWYRQAPGKERELVAAISIGGSTNYADSVKGRFTISRDNAKNNVYLQMNSLKPEDTAVYYCAAQGYLRLRTHFNYWGQGTQVTVSS | low polyreactivity
QVQLVESGGGLVQAGGSLRLSCAASGSTIWSNAMVWYRQAPGKERELVAVISGGTSTNYADSVKGRFTISRDNAKNTVYLQMNSLKPEDTAVFYCAADWGSYLILINDTDMDYWGQGTQVTVSS | low polyreactivity
QVQLVESGGGLVQAGGSLRLSCAASGNTFRLYGMGWYRQAPGKERELVAAIRSGDRTYYADSVKGRFTISRDNAKNTVYLQMNSLKPEDTAVYYCAARVNLSKLFGYWGQGTQVTVSS | high polyreactivity

Sequence | polyreactivity (PSR sort gate)
QVQLEESGGGLVQAGGTLRLSCAASGGIIVSYAMGWYRPAPRKERELVAAITSGGGTSYADSVKGRFTISRDNAKNTVYLQLNSLKPEDTAVYYCNADGYLAERFVIRLVEFRDYDYWGQGTQVTVSS | low polyreactivity
QVQLVESGGGLVQAGGSLRLSCAASGYTFRTNVMGWYRQAPGTERELVATINWRGGSTYYADSVKGRFTISRDYAKNTVYLLINSLKPEDTAVYYCAADGLSNVRQMDYWGQGTQVTVSS | low polyreactivity
QVQLVESGGGLVQAGGSLRLSCAASGRIFLYYAMGWYRQAPGKERELVAAISSGGSTYYADSVKGRFTISRDNAKNTVYLQMNSLKPEDTAVYYCATPSGRWGHYGYWGQGTQVTVSS | low polyreactivity
QVQLVESGGGLVQSGGSLRLRCAASGRIFGGYAMGWYRQAPGKERELVAAISWRGGSTSYADSVKGRFTISRDNAKNTVYLQMNSLKPEDTAVYYCAKYWGHTYGSWGQGTQVTVSS | high polyreactivity
QVQLVESGGGLVQAGGSLRLSCAASGSTLRAYAMGWYRQAPGKERELVAAITRRGGSTSYADSVKGRFTISRDNAKNTVYLQMNSLKPEDTAVYYCARVVVTRHPKSIEYDYWGQGTQVTVSS | high polyreactivity
QVQLVESGGGLVQAGGSLRLSCAASGRIFIYNAMGWYRQAPGKERELVAAINRSGVSTHYADSVKGRFTISRDHAKNTVYLQMNSLKPEDTAVYYCARTVYGARSYDYWGQGTQVTVSS | low polyreactivity
QVQLVESGGGLVQAGGSLRLSCAASGLIFQYYAMGWYRQAPGKERELVAAISGSGVRSYYADSVKGRFTTSRDNAKNTVYLQMNSLKPEDTAVYYCNTLRQDIIRGDYWGQGTHVTVSS | high polyreactivity
QVQLVETGGGLVQAGGSLRLSCAASARTFVNYAMGWYRQAPGKEREFVAAITNGGRTNYADSVKGRFTISRDNAKNTVYLQMNSLKQEDTAVYYCAARYRFGGIRRFNYWGQGTQVTVSS | high polyreactivity
QVQLVESGGGLVQAGGSLRLSCAASGRTFNGYAMGWYRQAPGKEREFVAAITSRGGSTYYADSVKGRFTISRDNAKNTVYLQMNSLKPEDTAVYYCAARAYTALSWRRYGYWGQGTQVTVSS | high polyreactivity
QVQLVESGGGLVQAGGSLRLSCAASGSIFAGYTMGWYRQAPGKERELVATITRSGTSTFYADSVKGRFTISRDNAKNTVYLQMNSLKPEDTAVYYCAADVTARYDYWGQGTQVTVSS | high polyreactivity
QVQLVESGGGLVQAGGSLRLSCAASGRTFGFNVMGWYRQAPGKERELVAAISRSGGSTYYADSVKGRFTISRDNAKNTVYLQMNRLKPEDTAVYYCNKRYVHRYGYWGPGTQVTVSS | low polyreactivity
QDQLVESGGGLVQAGGSLRLSCAASGFIFGLNAMGWYRQAPGKERELVASISRRCGSTYYAYSVKGRFTISRDNAKNTVYLQMNSLKPEDTAVYYCASDTLGGTSLGDYWGQGIQVTVSS | high polyreactivity
QVQLVESGGGLVQAGGSLRLRGAASGSTFIFNVRGWYRQAPGKERELVAVISWSGGSTYYADSVKGRFTISRDNAKNTVYLQMNSLKPEDTAVYYCARDQTFGPSPYDWYYYPGYDYWGQGTQVTVSS | low polyreactivity
QVQLVESGGGLVQAGGSLRLSCAASGITFQTYTMGWYRQAPGKERELVATISWNGGSTYYADSVKGRFTISRDNAKNTVYLQMNSLKPEDNAVYDCATGKWGYFRYNYWGQGTQVTVSS | high polyreactivity
QVQLVESGGGLVQAGGSLRLSCAASGSIFKINAMGWYRQAPWKERDFVAAITWSGGSTYYADSVKGRFTISRDNAKHTVYLQMNSLKPEDTAVYYCNARYFNYSTFGGKMGYWGQGTQVTVSS | high polyreactivity
QVQLVESGGGLVQAGGSLRLSCAASGRIFGINAMGWYRQAPGKERELVASIDGGGSKNYADSVKGRFTISRDNAKNTVYLQMNSLKPEDTAVYYCAKERSEYRSRHQAYRYDYWGQGTQVTVSS | low polyreactivity
